Tested on: Escherichia coli TOP10
Experiment: shrunken log2 fold change of peptide-encoding DNA abundance (4.5 h post-induction vs induction); higher = less antimicrobial activity (less host growth inhibition)
Details: time post-induction: 4.5 h; library: site-saturation at positions 5, 18, 19, 20
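Further: peptides expressed intracellularly from a pBAD plasmid library in pooled LB shake-flask culture, induced with 0.3% L-arabinose, DNA abundance read by NGS, three biological replicates, DESeq2 with apeglm shrinkage.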

Row | Sequence | shrunken log2 fold change
1 | RRIRDRPPRLPRPRPRPEWYPRP | 0.0233
2 | RRIRRRPPRLPRPRPRPMNTPRP | -0.171
3 | RRIRWRPPRLPRPRPRPIWRPRP | 0.628
4 | RRIRHRPPRLPRPRPRPPRFPRP | 0.578
5 | RRIRARPPRLPRPRPRPAMGPRP | 0.505
6 | RRIRWRPPRLPRPRPRPYVIPRP | -0.0496
7 | RRIRLRPPRLPRPRPRPIEVPRP | 0.434
8 | RRIRCRPPRLPRPRPRPQLGPRP | -0.00405
9 | RRIRQRPPRLPRPRPRPQMWPRP | 0.0113
10 | RRIRERPPRLPRPRPRPEVGPRP | 0.0848
11 | RRIRARPPRLPRPRPRPVYHPRP | -0.321
12 | RRIRIRPPRLPRPRPRPRYKPRP | -0.593
13 | RRIRDRPPRLPRPRPRPGMHPRP | 0.0286
14 | RRIRTRPPRLPRPRPRPVSRPRP | 0.464
15 | RRIRMRPPRLPRPRPRPLCDPRP | 1.11
16 | RRIRRRPPRLPRPRPRPGVCPRP | 0.369
17 | RRIRWRPPRLPRPRPRPSLCPRP | 0.384
18 | RRIRERPPRLPRPRPRPIIVPRP | -0.149
19 | RRIRPRPPRLPRPRPRPLPIPRP | -0.301
20 | RRIRHRPPRLPRPRPRPGHFPRP | 0.0387
21 | RRIRNRPPRLPRPRPRPLLNPRP | -0.443
22 | RRIRVRPPRLPRPRPRPFQDPRP | -0.0723
23 | RRIRYRPPRLPRPRPRPKFNPRP | -1.1
24 | RRIRARPPRLPRPRPRPTSFPRP | 0.237
25 | RRIRDRPPRLPRPRPRPAEPPRP | 0.288

Row | Sequence | shrunken log2 fold change
26 | RRIRSRPPRLPRPRPRPETRPRP | 0.192
27 | RRIRRRPPRLPRPRPRPPPQPRP | 1.27
28 | RRIRLRPPRLPRPRPRPHGFPRP | 0.000509
29 | RRIRIRPPRLPRPRPRPQVMPRP | -0.604
30 | RRIRARPPRLPRPRPRPAWEPRP | 0.925
31 | RRIRHRPPRLPRPRPRPCNIPRP | -0.236
32 | RRIRYRPPRLPRPRPRPMRVPRP | 0.135
33 | RRIRSRPPRLPRPRPRPANKPRP | -0.283
34 | RRIRPRPPRLPRPRPRPPAGPRP | 0.506
35 | RRIRCRPPRLPRPRPRPSLVPRP | -0.399
36 | RRIRMRPPRLPRPRPRPTRYPRP | 0.628
37 | RRIRQRPPRLPRPRPRPTHAPRP | 0.437
38 | RRIRGRPPRLPRPRPRPKEIPRP | 0.57
39 | RRIRFRPPRLPRPRPRPHYPPRP | -0.178
40 | RRIRGRPPRLPRPRPRPMAAPRP | 1.4
41 | RRIRTRPPRLPRPRPRPSMSPRP | -0.655
42 | RRIRQRPPRLPRPRPRPSQIPRP | -0.0855
43 | RRIRARPPRLPRPRPRPRFHPRP | -0.0673
44 | RRIRRRPPRLPRPRPRPSSQPRP | -0.25
45 | RRIRWRPPRLPRPRPRPTNGPRP | -0.134
46 | RRIRMRPPRLPRPRPRPITCPRP | -0.0534
47 | RRIRVRPPRLPRPRPRPCLQPRP | -0.421
48 | RRIRKRPPRLPRPRPRPCFLPRP | -0.0702
49 | RRIRGRPPRLPRPRPRPMETPRP | 0.00487
50 | RRIRGRPPRLPRPRPRPILPPRP | 0.0676

Row | Sequence | shrunken log2 fold change
51 | RRIRNRPPRLPRPRPRPYPIPRP | -0.0592
52 | RRIRFRPPRLPRPRPRPLGLPRP | -0.0983
53 | RRIRIRPPRLPRPRPRPFLPPRP | -0.4
54 | RRIRTRPPRLPRPRPRPCVCPRP | -0.206
55 | RRIRDRPPRLPRPRPRPNWFPRP | -0.0729
56 | RRIRMRPPRLPRPRPRPQIYPRP | -0.464
57 | RRIRDRPPRLPRPRPRPVCHPRP | -0.0164
58 | RRIRWRPPRLPRPRPRPFNPPRP | -0.389
59 | RRIRSRPPRLPRPRPRPMHVPRP | -0.00553
60 | RRIRKRPPRLPRPRPRPGKEPRP | 0.266
61 | RRIRFRPPRLPRPRPRPWKIPRP | -0.0171
62 | RRIRMRPPRLPRPRPRPCSYPRP | -0.0368
63 | RRIRQRPPRLPRPRPRPEPYPRP | 0.0808
64 | RRIRYRPPRLPRPRPRPTQCPRP | -0.0863
65 | RRIRNRPPRLPRPRPRPTKMPRP | 0.00053
66 | RRIRWRPPRLPRPRPRPVGRPRP | 0.0962
67 | RRIRMRPPRLPRPRPRPKPTPRP | 0.266
68 | RRIRARPPRLPRPRPRPGCIPRP | 0.315
69 | RRIRERPPRLPRPRPRPRQMPRP | -0.000582
70 | RRIRARPPRLPRPRPRPHCTPRP | 1.18
71 | RRIRHRPPRLPRPRPRPYLPPRP | -0.618
72 | RRIRHRPPRLPRPRPRPMYVPRP | 0.0136
73 | RRIRKRPPRLPRPRPRPSAHPRP | 0.164
74 | RRIRLRPPRLPRPRPRPDDPPRP | 0.00153
75 | RRIRNRPPRLPRPRPRPMPLPRP | -0.0789

Row | Sequence | shrunken log2 fold change
76 | RRIRGRPPRLPRPRPRPETIPRP | 0.224
77 | RRIRWRPPRLPRPRPRPPEMPRP | 0.812
78 | RRIRCRPPRLPRPRPRPGKFPRP | -0.188
79 | RRIRFRPPRLPRPRPRPSNFPRP | -0.129
80 | RRIRLRPPRLPRPRPRPCRRPRP | -0.0846
81 | RRIRSRPPRLPRPRPRPWGVPRP | -0.412
82 | RRIRFRPPRLPRPRPRPGMTPRP | -0.142
83 | RRIRERPPRLPRPRPRPQIIPRP | -1.12
84 | RRIRHRPPRLPRPRPRPMKGPRP | 0.081
85 | RRIRDRPPRLPRPRPRPGCGPRP | 0.92
86 | RRIRQRPPRLPRPRPRPNYNPRP | -0.0928
87 | RRIRYRPPRLPRPRPRPGFIPRP | 2.02
88 | RRIRVRPPRLPRPRPRPNHIPRP | -0.651
89 | RRIRTRPPRLPRPRPRPNYGPRP | -0.363
90 | RRIRTRPPRLPRPRPRPSMNPRP | -0.28
91 | RRIRARPPRLPRPRPRPHIQPRP | -0.164
92 | RRIRFRPPRLPRPRPRPDSLPRP | -0.204
93 | RRIRWRPPRLPRPRPRPSPLPRP | -0.26
94 | RRIRHRPPRLPRPRPRPIFAPRP | 0.158
95 | RRIRCRPPRLPRPRPRPTHQPRP | 0.476
96 | RRIRTRPPRLPRPRPRPNEGPRP | -0.191
97 | RRIRWRPPRLPRPRPRPFFKPRP | -0.0879
98 | RRIRFRPPRLPRPRPRPIMWPRP | 0.0691
99 | RRIRYRPPRLPRPRPRPEARPRP | 0.105
100 | RRIRCRPPRLPRPRPRPCGAPRP | 0.285

Row | Sequence | shrunken log2 fold change
101 | RRIRMRPPRLPRPRPRPNTIPRP | -0.3
102 | RRIRERPPRLPRPRPRPSDIPRP | -0.0101
103 | RRIRFRPPRLPRPRPRPMSHPRP | 0.00661
104 | RRIRHRPPRLPRPRPRPIVYPRP | -0.452
105 | RRIRMRPPRLPRPRPRPGFEPRP | 0.526
106 | RRIRKRPPRLPRPRPRPAHRPRP | 0.562
107 | RRIRFRPPRLPRPRPRPEILPRP | -0.0488
108 | RRIRQRPPRLPRPRPRPGMFPRP | 0.00926
109 | RRIRNRPPRLPRPRPRPEYGPRP | -0.284
110 | RRIRPRPPRLPRPRPRPEGPPRP | -0.147
111 | RRIRCRPPRLPRPRPRPIPMPRP | -0.108
112 | RRIRARPPRLPRPRPRPSQHPRP | -0.117
113 | RRIRDRPPRLPRPRPRPYGAPRP | 0.00308
114 | RRIRCRPPRLPRPRPRPAQDPRP | 0.289
115 | RRIRKRPPRLPRPRPRPLAYPRP | 0.259
116 | RRIRVRPPRLPRPRPRPYTSPRP | -0.0679
117 | RRIRPRPPRLPRPRPRPSNIPRP | -1.15
118 | RRIRSRPPRLPRPRPRPHIDPRP | -0.369
119 | RRIRFRPPRLPRPRPRPIRRPRP | 0.0321
120 | RRIRNRPPRLPRPRPRPTIDPRP | -0.492
121 | RRIRWRPPRLPRPRPRPVCSPRP | 0.0102
122 | RRIRIRPPRLPRPRPRPHARPRP | 3.76
123 | RRIRRRPPRLPRPRPRPICGPRP | -0.0231
124 | RRIRHRPPRLPRPRPRPIQVPRP | 0.000744
125 | RRIRERPPRLPRPRPRPCLHPRP | -0.0164

Row | Sequence | shrunken log2 fold change
126 | RRIRHRPPRLPRPRPRPDTAPRP | 0.0194
127 | RRIRERPPRLPRPRPRPYCSPRP | -0.57
128 | RRIRARPPRLPRPRPRPSGPPRP | 0.0223
129 | RRIRCRPPRLPRPRPRPSKLPRP | -0.674
130 | RRIRKRPPRLPRPRPRPEAEPRP | 3.31
131 | RRIRWRPPRLPRPRPRPNHPPRP | -0.0659
132 | RRIRRRPPRLPRPRPRPSTRPRP | 0.194
133 | RRIRVRPPRLPRPRPRPQACPRP | 1.56
134 | RRIRKRPPRLPRPRPRPLQPPRP | 0.349
135 | RRIRNRPPRLPRPRPRPWAFPRP | -0.014
136 | RRIRDRPPRLPRPRPRPSVYPRP | -0.404
137 | RRIRQRPPRLPRPRPRPMCFPRP | -0.352
138 | RRIRWRPPRLPRPRPRPRWAPRP | 0.662
139 | RRIRLRPPRLPRPRPRPWDIPRP | -0.0445
140 | RRIRCRPPRLPRPRPRPLFRPRP | -0.283
141 | RRIRYRPPRLPRPRPRPLMTPRP | -0.181
142 | RRIRDRPPRLPRPRPRPSNHPRP | -0.548
143 | RRIRVRPPRLPRPRPRPLDPPRP | -0.258
144 | RRIRWRPPRLPRPRPRPDGEPRP | 0.0237
145 | RRIRWRPPRLPRPRPRPECSPRP | 0.966
146 | RRIRKRPPRLPRPRPRPKLFPRP | 0.379
147 | RRIRNRPPRLPRPRPRPLDLPRP | 0.00897
148 | RRIRLRPPRLPRPRPRPVQPPRP | 0.653
149 | RRIRCRPPRLPRPRPRPVKLPRP | -0.176
150 | RRIRLRPPRLPRPRPRPGQYPRP | -0.0693
